The target of this experiment is Insulin-like growth factor 2 mRNA binding protein 2, full-length, Q9Y6M1. As to the kind of experiment: mass photometry. Conditions: remark: other sources report otherwise.

B1: Insulin-like growth factor 2 mRNA binding protein 2, full-length, Q9Y6M1 1-599 (natural protein)
chain: MMNKLYIGNLSPAVTADDLRQLFGDRKLPLAGQVLLKSGYAFVDYPDQNWAIRAIETLSGKVELHGKIMEVDYSVSKKLRSRKIQIRNIPPHLQWEVLDGLLAQYGTVENVEQVNTDTETAVVNVTYATREEAKIAMEKLSGHQFENYSFKISYIPDEEVSSPSPPQRAQRGDHSSREQGHAPGGTSQARQIDFPLRILVPTQFVGAIIGKEGLTIKNITKQTQSRVDIHRKENSGAAEKPVTIHATPEGTSEACRMILEIMQKEADETKLAEEIPLKILAHNGLVGRLIGKEGRNLKKIEHETGTKITISSLQDLSIYNPERTITVKGTVEACASAEIEIMKKLREAFENDMLAVNQQANLIPGLNLSALGIFSTGLSVLSPPAGPRGAPPAAPYHPFTTHSGYFSSLYPHHQFGPFPHHHSYPEQEIVNLFIPTQAVGAIIGKKGAHIKQLARFAGASIKIAPAEGPDVSERMVIITGPPEAQFKAQGRIFGKLKEENFFNPKEEVKLEAHIRVPSSTAGRVIGKGGKTVNELQNLTSAEVIVPRDQTPDENEEVIVRIIGHFFASQTAQRKIREIVQQVKQQEQKYPQGVASQRSK
In the case of B1, the percent of the protein in the ˜160kDa species is 42%.

The values are drawn from PMC10889000.
